In patent publication US20120230990A1 (MERCK SERONO, published 2012):

Assays:
[1] = biological target: T1, human IL-22RA on cells (HepG2 hepatoma cells, normal human keratinocytes, BaF3 cells transfected with human … (human, UniProt Q8N6P7 16-574)); experiment: cell-based or functional assay
T1 sequence: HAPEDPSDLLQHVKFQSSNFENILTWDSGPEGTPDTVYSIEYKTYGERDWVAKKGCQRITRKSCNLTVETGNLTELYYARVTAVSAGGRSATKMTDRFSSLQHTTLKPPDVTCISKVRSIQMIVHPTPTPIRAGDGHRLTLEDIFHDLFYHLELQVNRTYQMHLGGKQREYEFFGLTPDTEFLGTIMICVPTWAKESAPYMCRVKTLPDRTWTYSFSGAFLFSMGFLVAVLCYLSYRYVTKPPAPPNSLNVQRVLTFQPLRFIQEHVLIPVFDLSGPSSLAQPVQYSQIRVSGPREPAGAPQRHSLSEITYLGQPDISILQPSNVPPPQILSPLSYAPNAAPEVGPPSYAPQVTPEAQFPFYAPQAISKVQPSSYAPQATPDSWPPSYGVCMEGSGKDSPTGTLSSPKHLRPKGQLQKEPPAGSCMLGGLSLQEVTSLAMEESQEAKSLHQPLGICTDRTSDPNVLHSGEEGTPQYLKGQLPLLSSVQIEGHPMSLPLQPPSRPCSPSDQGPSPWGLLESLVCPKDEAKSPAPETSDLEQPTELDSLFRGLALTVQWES

[2] = biological target: T2, murine IL-22RA on cells (HEPA1-6 hepatoma cells, BaF3 cells transfected with murine IL-22RA and IL-10RB) (murine, UniProt Q80XZ4 16-581); experiment: cell-based or functional assay
T2 sequence (looked up): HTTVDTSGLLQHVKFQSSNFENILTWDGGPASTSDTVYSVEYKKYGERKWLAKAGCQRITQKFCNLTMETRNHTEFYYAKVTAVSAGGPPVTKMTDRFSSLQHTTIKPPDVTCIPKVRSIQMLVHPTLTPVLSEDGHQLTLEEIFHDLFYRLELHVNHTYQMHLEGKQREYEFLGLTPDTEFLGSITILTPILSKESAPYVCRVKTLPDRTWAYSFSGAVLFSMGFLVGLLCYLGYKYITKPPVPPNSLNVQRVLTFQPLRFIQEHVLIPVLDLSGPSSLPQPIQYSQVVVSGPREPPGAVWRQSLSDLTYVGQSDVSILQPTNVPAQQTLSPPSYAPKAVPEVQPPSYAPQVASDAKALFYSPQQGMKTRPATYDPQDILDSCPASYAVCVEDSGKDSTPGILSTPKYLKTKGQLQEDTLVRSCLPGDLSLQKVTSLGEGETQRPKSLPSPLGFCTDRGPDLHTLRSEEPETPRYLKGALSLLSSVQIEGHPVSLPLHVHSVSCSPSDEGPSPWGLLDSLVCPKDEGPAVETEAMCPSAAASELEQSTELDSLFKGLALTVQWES

[3] = biological target: T3, human IL-22RA-ECD (IL-22RA-Extra Cellular Domain) (human, UniProt Q8N6P7 16-228); experiment: KinExA, IL-22RA-ECD with 6 His tag
T3 construct: also called human IL-22RA extracellular domain; hIL-22RA coated on the plates; not shown: 6 His tag
T3 sequence: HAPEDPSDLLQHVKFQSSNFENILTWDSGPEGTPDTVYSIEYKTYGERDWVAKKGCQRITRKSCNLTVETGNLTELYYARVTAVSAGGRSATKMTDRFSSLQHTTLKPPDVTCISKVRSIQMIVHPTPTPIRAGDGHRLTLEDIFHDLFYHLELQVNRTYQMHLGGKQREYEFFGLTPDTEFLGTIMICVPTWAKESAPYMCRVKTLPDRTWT

[4] = biological target: T4, rhesus monkey IL-22RA-ECD (rhesus monkey); experiment: KinExA, IL-22RA-ECD with 6 His tag
T4 construct: extracellular domain; Produced in HEK-293 cells and NiNTA-purified

[5] = biological target: T5, marmoset monkey IL-22RA-ECD (marmoset monkey); experiment: KinExA, IL-22RA-ECD with 6 His tag
T5 construct: extracellular domain; Produced in HEK-293 cells and NiNTA-purified

rat IL-22RA-ECD = biological target: T6, rat IL-22RA-ECD (rat); experiment: KinExA, IL-22RA-ECD with 6 His tag
T6 construct: extracellular domain; Produced in HEK-293 cells and NiNTA-purified

[6] = biological target: T7, cynomolgus monkey IL-22RA-ECD (cynomolgus monkey); experiment: KinExA, IL-22RA-ECD with 6 His tag
T7 construct: extracellular domain; Produced in HEK-293 cells and NiNTA-purified

mouse IL-22RA-ECD = biological target: T8, mouse IL-22RA-ECD (mouse, UniProt Q80XZ4 16-230); experiment: KinExA, IL-22RA-ECD with 6 His tag
T8 construct: extracellular domain; Produced in HEK-293 cells and NiNTA-purified; not shown: 6 His tag
T8 sequence (looked up): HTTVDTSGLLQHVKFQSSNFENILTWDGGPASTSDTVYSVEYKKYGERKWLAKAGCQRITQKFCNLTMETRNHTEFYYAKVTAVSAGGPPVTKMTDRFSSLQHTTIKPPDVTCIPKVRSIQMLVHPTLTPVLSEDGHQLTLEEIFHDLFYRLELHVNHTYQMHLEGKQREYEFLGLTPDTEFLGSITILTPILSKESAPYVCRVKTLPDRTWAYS

B1: 280.346.TSY (humanized anti-human IL-22RA antibody comprising 280.VH3-66-46 paired with 280.VK4-1-TSY, human IgG1/kappa) (antibody, V domains shown)
VH: EVQLVESGGGLVQPGGSLRLSCAASGYSITAEYMNWVRQAPGKGLEWIGEINPSTGTTTYNQKFKGRFTISVDQSKNTAYLQMNSLRAEDTAVYYCARFDAYFDYWGQGTLVTVSS
VL: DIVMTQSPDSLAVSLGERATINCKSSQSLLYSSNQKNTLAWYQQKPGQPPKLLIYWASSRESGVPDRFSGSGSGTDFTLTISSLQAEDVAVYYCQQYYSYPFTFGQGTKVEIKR
notes: Produced in CHO cells; also called 280.VH3-66-46/VK4-1-TSY; 280.VH3-66.46 paired with 280.IGKV4-1-TSY
IC50, STAT3 phosphorylation assay in human HepG2 hepatoma cells stimulated with recombinant human IL-22 [1]: 0.0552 nM
IC50, STAT3 phosphorylation assay in normal human keratinocytes stimulated with recombinant human IL-22 [1]: 0.061 nM
IC50, proliferation assay in BaF3 cells transfected with human IL-22RA and IL-10RB, cultured with recombinant human IL-22 [1]: 0.317 nM
fold potency against the mouse parental antibody 280.46.3.4, STAT3 phosphorylation assay in HepG2 cells [1]: ~5 fold
fold potency against the mouse parental antibody 280.46.3.4, STAT3 phosphorylation assay in normal human keratinocytes [1]: ~9 fold
fold potency against the mouse parental antibody 280.46.3.4, proliferation of human IL-22 receptor transfected BaF3 cells [1]: 1.7 fold
IC50, STAT3 phosphorylation assay in murine HEPA1-6 hepatoma cells stimulated with recombinant murine IL-22 [2]: 2.1 nM
IC50, proliferation assay in BaF3 cells transfected with murine IL-22RA and IL-10RB, cultured with recombinant murine IL-22 [2]: 0.137 nM
fold potency against the mouse parental antibody 280.46.3.4, proliferation of mouse IL-22 receptor transfected BaF3 cells [2]: 6.2 fold
Kd [3]: ~0.0285 nM
Kd [4]: ~0.137 nM
Kd [5]: ~0.0385 nM
Kd (rat IL-22RA-ECD): ~587 nM
Kd [6]: ~0.0645 nM
Kd (mouse IL-22RA-ECD): ~4.85 nM
